In article PMC7313238 (Journal of the American Society for Mass Spectrometry, 2020):

Molecular target: the molecule itself
Test: SEC + native MS

B1: BX1 from Zea mays (zmBX1), wild type (enzyme)
chain: SRPVSDTMAALMAKGKTAFIPYITAGDPDLATTAEALRLLDGCGADVIELGVPCSDPYIDGPIIQASVARALASGTTMDAVLEMLREVTPELSCPVVLLSYYKPIMSRSLAEMKEAGVHGLIVPDLPYVAAHSLWSEAKNNNLELVLLTTPAIPEDRMKEITKASEGFVYLVSVNGVTGPRANVNPRVESLIQEVKKVTNKPVAVGFGISKPEHVKQIAQWGADGVIIGSAMVRQLGEAASPKQGLRRLEEYARGMKNALP
stoichiometry N: 2
